In patent US20150177248:

Molecular target: T1, acetylated p53 peptide (p53-382/diAc), P04637
T1 chain: RHKK

B1: SIRT7 (sirtuin 7) protein (protein)
chain: MAAGGLSRSERKAAERVRRLREEQQRERLRQVSRILRKAAAERSAEEGRLLAESADLVTELQGRSRRREGLKRRQEEVCDDPEELRGKVRELASAVRNAKYLVVYTGAGISTAASIPDYRGPNGVWTLLQKGRSVSAADLSEAEPTLTHMSITRLHEQKLVQHVVSQNCDGLHLRSGLPRTAISELHGNMYIEVCTSCVPNREYVRVFDVTERTALHRHQTGRTCHKCGTQLRDTIVHFGERGTLGQPLNWEAATEAASRADTILCLGSSLKVLKKYPRLWCMTKPPSRRPKLYIVNLQWTPKDDWAALKLHGKCDDVMRLLMAELGLEIPAYSRWQDPIFSLATPLRAGEEGSHSRKSLCRSREEAPPGDRGAPLSSAPILGGWFGRGCTKRTKRKKVT
- deacetylation activity: significantly increased
